The target of test [1] is human FcRn-His-GST (FcRn fused to a His-tag and glutathione S transferase) (human) (UniProt P55899). Nature of the test: AlphaScreen competition vs wild-type Fc, pH 6.0 (FIG. 13).
Test [2] shares this target. Nature of the test: AlphaScreen competition, pH 6.0 (FIG. 13). On the technique in general: Bead proximity is the source of the signal in Alpha formats.

Here are results for two substances from patent US20250011440A1.

Chain of UniProt P55899 (P55899 24-297, chain 1 of 2): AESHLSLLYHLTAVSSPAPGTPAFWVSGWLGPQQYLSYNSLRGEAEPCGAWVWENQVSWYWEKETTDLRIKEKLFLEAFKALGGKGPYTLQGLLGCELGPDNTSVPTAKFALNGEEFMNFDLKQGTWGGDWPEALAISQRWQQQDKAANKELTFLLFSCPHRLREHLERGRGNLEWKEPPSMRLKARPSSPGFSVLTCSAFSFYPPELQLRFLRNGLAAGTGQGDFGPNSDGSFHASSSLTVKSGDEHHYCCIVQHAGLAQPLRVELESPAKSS
Chain of UniProt P55899 (P61769 21-119, chain 2 of 2, further chain): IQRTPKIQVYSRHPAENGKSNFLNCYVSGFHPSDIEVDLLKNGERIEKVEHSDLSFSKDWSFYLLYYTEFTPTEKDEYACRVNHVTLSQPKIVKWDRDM

In test [1], “IgG1 Fc variant N286# (deletion of N286; taken as in the anti-HER2 antibody trastuzumab)” returned a fold increase in FcRn affinity (vs wild type) of 2 fold.
In test [2], “IgG1 Fc variant ^254N (Asn inserted after position 254; taken as in the anti-HER2 antibody trastuzumab)” registered a percent of the binding affinity of the wild type of 1.1%.
